# From patent US20220325261
# System: beta-catenin
substance,measurement,value
GST-PTPRS D1,tyrosine phosphorylation of immunopurified beta-catenin (Western blot),decreased tyrosine phosphorylation of immunopurified beta-catenin in the presence of GST-PTPRS D1 compared to GST alone
